Assay results as given in article PMC7904663 (Nature chemical biology, 2021).

What was measured:
[1] = target: Nicotine oxidoreductase (NicA2) (Pseudomonas putida S16) (UniProt F8G0P2); assay: stopped-flow absorbance spectrophotometry
[2] = target: T1, NicA2 (Pseudomonas putida, UniProt F8G0P2); assay: biochemical
T1 sequence (F8G0P2 1-482): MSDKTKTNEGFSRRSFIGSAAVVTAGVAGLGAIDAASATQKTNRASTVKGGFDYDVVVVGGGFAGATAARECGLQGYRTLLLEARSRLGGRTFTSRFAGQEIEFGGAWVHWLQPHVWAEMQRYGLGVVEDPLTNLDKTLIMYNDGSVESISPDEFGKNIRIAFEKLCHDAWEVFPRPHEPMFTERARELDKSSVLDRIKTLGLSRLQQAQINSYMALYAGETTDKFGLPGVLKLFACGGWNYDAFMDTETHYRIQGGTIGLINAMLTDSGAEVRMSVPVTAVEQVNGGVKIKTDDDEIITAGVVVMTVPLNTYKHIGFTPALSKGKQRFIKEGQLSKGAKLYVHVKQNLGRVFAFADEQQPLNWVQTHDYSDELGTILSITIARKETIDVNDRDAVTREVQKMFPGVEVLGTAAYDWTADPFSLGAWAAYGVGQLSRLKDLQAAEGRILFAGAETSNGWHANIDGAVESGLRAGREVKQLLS

| Compound | bimolecular rate constant (kon), first phase, N-methylmyosmine-bound NicA2 [1] [M⁻¹ s⁻¹] | bimolecular rate constant (kon), second phase, N-methylmyosmine-bound NicA2 [1] [M⁻¹ s⁻¹] | kon, first phase (CycNox with NicA2-Flred) [1] [M⁻¹ s⁻¹] | Kd [2] [µM] |
| --- | --- | --- | --- | --- |
| CycN (cytochrome c of Pseudomonas putida S16) (natural protein) | 140000 | 77000 | 1e+06 | – |
| c1cncc(C2=NCCC2)c1 [myosmine] | – | – | – | 268 ± 3 |
